Assay results reported in paper PMC2851570, “Distinct Roles of Hand2 in Initiating Polarity and Posterior Shh Expression during the Onset of Mouse Limb Bud Development” (PLoS Genetics, 2010).

Legend:
[1] = molecular target: Hoxd13 (expressed in transfected cells) (UniProt P70217)
[2] = molecular target: Hoxd13 (expressed in transfected cells) (UniProt P70217 1-339); assay: cell-based or functional assay
Chain of Hoxd13 (expressed in transfected cells) (UniProt P70217 1-339) (P70217 whole entry): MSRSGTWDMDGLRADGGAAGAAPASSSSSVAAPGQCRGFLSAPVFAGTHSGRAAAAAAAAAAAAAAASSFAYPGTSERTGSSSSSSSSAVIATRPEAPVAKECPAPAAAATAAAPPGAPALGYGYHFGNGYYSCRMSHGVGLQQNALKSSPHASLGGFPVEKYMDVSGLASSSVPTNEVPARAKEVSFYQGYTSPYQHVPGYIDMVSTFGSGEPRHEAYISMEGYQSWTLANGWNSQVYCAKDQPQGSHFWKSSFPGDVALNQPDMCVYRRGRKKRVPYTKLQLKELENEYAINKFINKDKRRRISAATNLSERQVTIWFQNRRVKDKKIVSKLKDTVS

Chain of Hoxd13 (expressed in transfected cells) (UniProt P70217) (P70217 whole entry): as above

In the case of “Gli3 repressor isoform (Gli3R), Myc-epitope tagged (domain or fragment)”, the repression by co-expressed Gli3R of Hand2-Hoxd13 mediated transactivation of the ZRS-Luc reporter in NIH3T3 cells [1] is reported as 50%.

B1: Hand2, Flag-epitope tagged (natural protein, UniProt Q61039 1-217, looked up)
chain: MSLVGGFPHHPVVHHEGYPFAAAAAAAAAAAASRCSHEENPYFHGWLIGHPEMSPPDYSMALSYSPEYASGAAGLDHSHYGGVPPGAGPPGLGGPRPVKRRGTANRKERRRTQSINSAFAELRECIPNVPADTKLSKIKTLRLATSYIAYLMDLLAKDDQNGEAEAFKAEIKKTDVKEEKRKKELNEILKSTVSSNDKKTKGRTGWPQHVWALELKQ
With B1 the “luciferase activity of the ZRS-Luc reporter in NIH3T3 cells on co-transfection of Hand2 and Hoxd13 (basal activity set to 1; Hand2 alone ∼3-fold, Hoxd13 alone ∼6.5-fold)” value [2] was roughly 10.5 fold.
